“Also recorded” adds a separate entry of the source.
Tests used:
[1] = biological target: T1, factor IXa (Bos taurus, UniProt P00741); assay: Chromogenic FVIII assay (COATEST VIII:C/4) with the kit's FIXa/FX; format: biochemical, bovine; conditions: purified IgG (198/AC1/1 10 μg/ml) or unpurified IgM supernatant
T1 construct: purchased Chromogenix COATEST VIII:C/4
Description: In order to assay the FVIII-like activity of anti-FIXa antibodies secreted by hybridoma cells, the commercially available test-kit COATEST VIII:C/4® (Chromogenix) was employed. The assay was done essentially as described by the manufacturer with the following modifications:
To allow high throughput screening, the assay was downscaled to microtiter plate format. Briefly, 25 μl aliquots of hybridoma supernatants were transferred to microtiter plate (Costar, #3598) wells and warmed to 37° C. Chromogenic substrate (S-2222), synthetic thrombin inhibitor (I-2581), factor (F) IXa and FX were reconstituted in sterile water and FIXa/FX was mixed with phospholipids according to the supplier's protocol. Per reaction, 50 μl of the phospholipid/FIXa/FX solution were combined with 25 μl CaCl2 (25 mM) and 50 μl of the substrate/inhibitor cocktail. To start the reaction, 125 μl of the premix were added to the hybridoma supernatant in the microtiter plates and incubated at 37° C. Absorbency at 405 nm and 490 nm of the samples was read at various times (30 min to 12 h) against a reagent blank (MLW, cell culture medium instead of hybridoma supernatant) in a Labsystems iEMS Reader MF™ microtiter plate reader. FVIII-like activity of the samples was calculated by comparing the absorbency of the samples against the absorbency of a diluted FVIII reference standard (IMMUNO AG #5T4AR00) using GENESIS™ software.
Several anti-FIX/FIXa antibody producing hybridoma clones were subcloned up to four times and the resulting monoclonal hybridoma cell line used to produce monoclonal antibody containing supernatant. IgG isotype antibodies derived from these supernatants were purified over affinity columns and dialyzed against TBS (see above). IgM antibodies were used as unpurified supernatant fractions. […] Absorbance at 405 nm and 490 nm of the samples was read at various times (5 min to 6 h) against a reagent blank (cell culture medium instead of hybridoma supernatant) in a Labsystems iEMS Reader MF™ microtiter plate reader using GENESIS™ software. […]

[2] = system: FVIII deficient plasma; assay: aPTT based one stage clotting assay in FVIII deficient plasma; format: biochemical, human; conditions: for clotting time: 50 ng FIXa
In short: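 Test samples preincubated 4 min with FVIII-deficient plasma and aPTT reagent (DAPTTIN or Pathromtin SL), optionally with 50 ng activated FIX; clotting started with 25 mM CaCl2. Read-out is clotting time from start to clot formation, set against FVIII, buffer or scrambled-peptide controls.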

[3] = system: FVIII inhibitor plasma; assay: aPTT based one stage clotting assay in FVIII inhibitor plasma; format: biochemical; conditions: inhibitor potency 400 BU/ml, 50 ng activated FIXa
Description: […] […] […] After a 4 minute incubation, the reaction was started by the addition of 100 μl CaCl2 (25 mM). To ensure equal conditions, the experiments employing FVIII deficient plasma and FVIII inhibitor plasma were done side by side.
To assay for the procoagulant activity of peptide A1/3 in FVIII inhibitor plasma the following experiment was carried out. We performed a standard aPTT based one stage clotting assay, but instead of FVIII deficient plasma we employed FVIII inhibitor plasma.

[4] = system: FIX/FIXa; assay: Western Blot and ELISA reactivity with FIX/FIXa; format: binding
Description: Factor IX and the two activated forms of FIX, FIXaα and FIXaβ (FIX/FIXa(α,β)) were diluted in TBS (25 mM Tris HCl, 150 mM NaCl, pH 7.5) to a final concentration of 2 μg/ml. Nunc Maxisorp ELISA plates were coated with 100 μl FIX/FIXa(α,β) solution according to standard procedures (4° C., overnight) and washed several times with TBST (TBS, 0.1% (v/v) Tween 20). 50 μl hybridoma supernatant was diluted 1:1 with 50 μl TBST/2% BSA and added to the coated ELISA plate. After an incubation period of 2 h at room temperature (RT), plates were washed 4 times with TBST and incubated (2 h, RT) with 100 μl/well of a 1:25000 dilution (in TBST/1% BSA) of an anti-mouse IgG (Fc-specific) peroxidase conjugated antibody (Sigma, #A-0168). Wells were washed 5 times with TBST and finally stained with 100 μl freshly prepared staining solution (10 ml 50 mM sodium citrate, pH 5 supplemented with 100 μl OPD (60 mg OPD/ml) and 10 μl 30% H2O2). The reaction was stopped by the addition of […] H2SO4 and the optical density recorded at 492 nm and 620 nm in a Labsystems iEMS Reader MF™ microtiter plate reader employing GENESIS™ software. […]

T1 sequence (P00741 47-192 limits assumed): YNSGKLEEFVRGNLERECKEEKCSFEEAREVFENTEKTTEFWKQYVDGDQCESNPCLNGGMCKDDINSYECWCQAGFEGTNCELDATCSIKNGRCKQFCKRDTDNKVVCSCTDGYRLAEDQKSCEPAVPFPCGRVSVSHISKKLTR
T1 sequence (P00741 228-462 limits assumed): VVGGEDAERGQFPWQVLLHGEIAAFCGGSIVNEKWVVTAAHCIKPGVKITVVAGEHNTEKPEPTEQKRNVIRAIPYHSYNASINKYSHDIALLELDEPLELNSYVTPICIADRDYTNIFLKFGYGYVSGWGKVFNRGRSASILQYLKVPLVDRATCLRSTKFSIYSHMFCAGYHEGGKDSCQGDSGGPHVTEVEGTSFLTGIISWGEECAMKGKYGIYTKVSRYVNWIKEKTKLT

B1: 193/AD3: anti-FIX/FIXa monoclonal antibody, IgG isotype; scFv SEQ. ID. NOs. 81 and 82 (protein)
scFv: EVKLVESGPELKKPGETVKISCKASGYIFTNYGMNWVKQAPGKGLKWMGWINTYTGEPTYADDFKGRFAFSLETSASTAYLQINNLKNEDTATYFCALYGNSPKGFAYWGQGTLVTVSAGGGGSGGRASGGGGSDIQMTQSPKFLLVSAGDRVTITCKASQSVSNDVAWYQQKPGQSPKLLMYYASNRYTGVPDRFTGSGYGTDFTFTISTVQAEDLAVYFCQQDYGSPPTFGGGTKLEIKR
modifications: scFv derived from IgG; Description of Artificial Sequence:scFv from hybridoma cell line 193/AD3
notes: anti-FIX/FIXa monoclonal antibody, IgG isotype; ID; NOs; 81 and 82
time course of FVIII-like activity (chromogenic substrate cleavage, OD 405 nm) [1]: give rise to chromogenic substrate cleavage; also recorded: gave rise to chromogenic substrate cleavage
clotting time ([2]; 0.23 μg AB): 99.3 s
clotting time ([2]; 0.34 μg AB): 97.1 s
clotting time ([2]; 0.45 μg AB): 98.1 s
clotting time ([2]; 0.9 μg AB): 94.4 s
clotting time ([2]; 1.35 μg AB): 91.4 s
clotting time ([2]; 1.8 μg AB): 93.7 s
clotting time ([2]; 2.25 μg AB): 93.1 s
clotting time ([2]; 4.5 μg AB): 95.6 s
clotting time ([2]; 9 μg AB): 101.6 s
procoagulant activity ([2]; one-stage clotting assay in the presence of FIXa): procoagulant
reduction of the clotting time ([2]; various amounts of antibody, 50 ng activated FIX): clear dose-dependent reduction of the clotting time; also recorded: reduction in the coagulation time
reduction of the clotting time [3]: clear dose-dependent reduction of the clotting time

B2: #8860: irrelevant monoclonal antibody, negative control (protein)
chain 1: EVQLQQSGPELVKPGASVKISCKASGYAFSSSWMNWVKQRPGQGLEWIGRIYPGNGDTNYNGKFKGKATLTADKSSSTAYMQLSSLTSVDSAVYFCADGNVYYYAMDYWGQGTSVTVSS
chain 2: QIVLTQSPASLAVSLGQRATISCRASKSVSTSGYSYMHWYQQKPGQPPKLLIYLASNLESGVPARFSGSGSGTDFTLNIHPVEEEDAATYYCQHSRELPRTFGGGTKLEIKR
reactivity with FIX/FIXa [4]: does not react with FIX/FIXa
